Experiment [1] addresses human antigen (immobilised on AR2G sensors in the Octet assay of Example 2) (human). Kind of experiment: BLI (OctetRed 96), antigen immobilised on AR2G sensors, antibody in solution, 1:1 global model, 30 C.
The target in experiment [2] is TRBV9 family TCR on human peripheral blood T lymphocytes (human). As to the kind of experiment: flow cytometry sorting of human peripheral blood mononuclear cells stained with MA-042-FITC, CD3-eFluor405 and CD45-PC5 at 100 ng/ml; dot plot of MA-042 against CD3. On the technique in general: In flow cytometry, cells or beads pass a laser one at a time.
The target is the same in experiment [3].
For experiment [4] the target is unchanged. Kind of experiment: FACS sorting with MA-042-FITC, then sequencing of the TCR beta-chain repertoire of the sorted cells.
For experiment [5] the target is unchanged. Kind of experiment: cell-based or functional assay.

Some results are limits rather than exact numbers.

A word on the Kd: it is the constant that tells how readily two partners part at equilibrium. Read a high Kd as a looser complex. Usually koff stands for the first-order rate constant of dissociation. High values mean fast dissociation, low ones slow dissociation. What is called kon is a measure of how fast the partners come together. A low value points to slow association.

B1: antibody MA-042 (antibody, human IgG1, kappa, V domains shown)
VH: QVQLVQSGSELKKPGESVKVSCKASGYTFTDYLVHWVRQAPGQGLEWMGWINTYTGTPTYADDFEGRFVFSLDTSVSTANLQISSLKAEDTAVYFCARSWRRGLRGIGFDYWGQGTLVTVSS
VL: DIQMTQSPYSLSASVGDRVTITCKASKSINKYLAWFQQKPGKPNKLLIYDGSTLQSGVPSRFSGSGSGTDFTLTISSLEPEDFATYYCQQHNEYPPTFGQGTKLEIKR
In experiment [1], B1 had a Kd of under 1 pM, a koff of under 1e-07 s⁻¹ and a kon of 319000 M⁻¹ s⁻¹. Also, the MA-042+ (share of cells in the MA-042+ gate) in experiment [2] was determined as 1.9%. In experiment [3], this molecule displayed a share of CD3+ cells in the TRBV9+ (MA-042-FITC positive) gate after the cytotoxicity assay with 1 ng/ml MA-042 (right panel) of 2% and a share of CD3+ cells in the TRBV9+ (MA-042-FITC positive) gate after the cytotoxicity assay with 1 ug/ml MA-042 (left panel) of 0.3%. The same molecule showed an enrichment of the sorted fraction's TCR beta-chain libraries with TRBV9-encoded sequences in experiment [4] of 93%. Also, in experiment [5], the EC50 in a cytotoxicity assay (elimination of TRBV9-positive cells among CD3+ lymphocytes, flow cytometry after 72 hours) was determined as 0.1 µg/mL and the antibody concentration at which complete elimination of the target population was detected is 500 ng/mL.

Values taken from patent US20220056133A1.
